Data: patent publication US20230227514A1, “BETA-ARRESTIN COMPOSITIONS AND ASSOCIATED METHODS” (Duke University, priority 2020, published 2023)

Key:
[1] = biological target: T1, D1 dopamine receptor (D1R) (Homo sapiens, UniProt P21728); experiment: Confocal trafficking and colocalization with D1R; assay type: cell-based; conditions: HEK-293 cells with stable D1R expression; dopamine 15 minutes
T1 construct: expressed in transfected cells
Protocol: (§1) Immunostaining and confocal microscopy. […] Twenty-four hours post-transfection, cells were serum-starved for 4 h, and either left untreated or treated with respective agonists for the indicated times in the Figure descriptions. After stimulation, cells were fixed with 5% formaldehyde diluted in phosphate-buffered saline (PBS), permeabilized with 0.1% Triton in PBS containing 2% bovine serum albumin for 20 min and incubated at room temperature with appropriate primary antibody. The next day, cells were washed three times with PBS and incubated with Alexa594 conjugated secondary antibody for 1 h, followed by repeated washes using PBS. Confocal images were acquired using Zeiss LSM510 laser-scanning microscope using multitrack sequential with excitation (488 and 568 nm) and emission (BP 505-550 nm and LP 585 nm) filter sets. Images (1024×1024 pixels) were collected using either a 63× or 100× oil immersion lens. Images were processed for Figure presentation using Adobe Photoshop software, and any increase or decrease of brightness/contrast was applied to the entire image. The nuclear rim localization of YFP-βarrestin2-SUMO1 is readily visualized in cells with low to moderate expression of YFP-protein. In cells with high expression, this localization is present, and can be discerned by enlarging sections of the nuclear rim. […]

[2] = biological target: T2, RanGAP1 (Homo sapiens, UniProt P46060); experiment: Co-immunoprecipitation of YFP-βarrestin2 constructs with endogenous RanGAP1; assay type: binding; conditions: IP of YFP proteins, probed for RanGAP1
T2 construct: endogenous in cells; host or cells: HEK-293T / HEK-293
Excerpt: HEK-293T cells were transiently transfected with indicated plasmids and subjected to coimmunoprecipitation with GFP IgG (3E6, Thermo Fisher) to immunoprecipitate YFP-βarrestin2 or YFP-βarrestin2-SUMO1 (“IP: YFP”). IPs were probed for endogenous RanGAP1, and for βarrestins. Cell lysates were also blotted to determine total cell protein levels (“Lysates”). Blots shown are from one of three independent experiments.

[3] = biological target: T3, V2R (Homo sapiens, UniProt P30518); experiment: Co-immunoprecipitation of βarrestin2 constructs with HA-V2R; assay type: binding; conditions: HEK-293 cells stably expressing HA-V2R; AVP
T3 construct: HA (N); expressed in transfected cells
Protocol: Twenty-four hours post-transfection, cells were starved in PBS containing 10 mM HEPES (pH 7.4) for 1 h and stimulated with vehicle or agonist (isoproterenol, 1 μM; or AVP 1 μM, or Dopamine 1 μM) at 37° C. for desired times. After stimulations, β2AR stable cells were treated with the crosslinker DSP to a final concentration of 480 nM, and plates were rocked for 20 min at room temperature. Reaction was quenched by adding 25 μl of 1M Tris-Cl pH 8.5 per 1 mL volume of buffer in the dish and rocked for additional 5 min at room temperature.

[4] = biological target: T4, β2AR (Homo sapiens, UniProt P07550); experiment: Chemical cross-linking and co-immunoprecipitation of βarrestin2 constructs with Flag-β2AR; assay type: binding; conditions: HEK-293 cells stably expressing FLAG-β2AR; 5 minutes of 1 μM isoproterenol; DSP cross-linking, co-IP, Western blot
T4 construct: Flag (N); expressed in transfected cells
Protocol: Cross-linking, Immunoprecipitation and Immunoblotting. […] Twenty-four hours post-transfection, cells were starved in PBS containing 10 mM HEPES (pH 7.4) for 1 h and stimulated with vehicle or agonist (isoproterenol, 1 μM; or AVP 1 μM, or Dopamine 1 μM) at 37° C. for desired times. After stimulations, β2AR stable cells were treated with the crosslinker DSP to a final concentration of […], and plates were rocked for 20 min at room temperature. Reaction was quenched by adding 25 μl of 1M Tris-Cl pH 8.5 per 1 mL volume of buffer in the dish and rocked for additional 5 min at room temperature.
Harvested cells were washed with ice-cold PBS (pH 7.4) and solubilized in an ice-cold lysis buffer (50 mM HEPES (pH 7.5), 2 mM EDTA, 250 mM NaCl, 10% (v/v) glycerol, and 0.5% (v/v) IGEPAL CA-630) that was supplemented with phosphatase and protease inhibitors (1 mM sodium orthovanadate, 1 mM sodium fluoride, 1 mM phenylmethylsulfonyl fluoride, 5 μg/ml leupeptin, 5 μg/ml aprotinin, 1 μg/ml pepstatin A, and 100 μM benzamidine). […] Cell lysate protein concentrations were determined by Bradford protein assay and equivalent μg of proteins were immunoprecipitated using anti-FLAG M2 antibody resin (for FIG. 2) or Anti-HA magnetic beads from Thermo Pierce (for FIG. 5, FIG. 7, and FIG. 8). […] HA-D2R or HA-V2R were detected using an anti-HA IgG (Cell Signaling Technologies). […]

[5] = biological target: T5, D2R (Homo sapiens, UniProt P14416); experiment: Confocal trafficking and colocalization with D2R; assay type: cell-based; conditions: HEK-293 cells stably expressing D2R
T5 construct: HA (N); expressed in transfected cells
Protocol: as §1

[6] = tested on: HEK-293 cells; experiment: Confocal microscopy of subcellular distribution of YFP-tagged proteins; assay type: cell-based, Human; conditions: 85 cells (mYFP-βarrestin2-SUMO1) and 80 cells (mYFP-SUMO1) observed
Protocol: as §1, with “Images (1024×1024 pixels) were collected using either a 63× or 100× oil immersion lens. Images were processed for Figure presentation using Adobe Photoshop software, and any increase or decrease of brightness/contrast was applied to the entire image.” left out, “YFP-protein.” for “YFP-protein. In cells with high expression, this localization is present, and can be discerned by enlarging sections of the nuclear rim.”
To circumvent this issue, a YFP tagged βarrestin2-SUMO1 fusion protein was generated, which would be resistant to the enzymatic activity of SENP1. YFP-βarrestin2-SUMO1 expressed in the cytoplasm akin to YFP-βarrestin2; but was also detected at the nuclear membrane (data not shown). […] While YFP-SUMO1 was concentrated in the nucleus, and nucleoli, very little βarrestin2-SUMO1 was detected in the nucleus or nucleolus. […]

[7] = biological target: T6, β1 adrenergic receptor (β1AR) (Homo sapiens, UniProt P08588); experiment: Confocal trafficking and colocalization with β1AR; assay type: cell-based; conditions: HEK-293 cells with stable β1AR expression
T6 construct: expressed in transfected cells
Protocol: Immunostaining and confocal microscopy. […] Twenty-four hours post-transfection, cells were serum-starved for 4 h, and either left untreated or treated with respective agonists for the indicated times in the Figure descriptions. After stimulation, cells were fixed with 5% formaldehyde diluted in phosphate-buffered saline (PBS), permeabilized with 0.1% Triton in PBS containing 2% bovine serum albumin for 20 min and incubated at room temperature with appropriate primary antibody. The next day, cells were washed three times with PBS and incubated with Alexa594 conjugated secondary antibody for 1 h, followed by repeated washes using PBS. Confocal images were acquired using Zeiss LSM510 laser-scanning microscope using multitrack sequential with excitation (488 and 568 nm) and emission (BP 505-550 nm and LP 585 nm) filter sets. Images (1024×1024 pixels) were collected using either a 63× or 100× oil immersion lens. Images were processed for Figure presentation using Adobe Photoshop software, and any increase or decrease of brightness/contrast was applied to the entire image. The nuclear rim localization of YFP-βarrestin2-SUMO1 is readily visualized in cells with low to moderate expression of YFP-protein. In cells with high expression, this localization is present, and can be discerned by enlarging sections of the nuclear rim.

T5 sequence (P14416 whole entry): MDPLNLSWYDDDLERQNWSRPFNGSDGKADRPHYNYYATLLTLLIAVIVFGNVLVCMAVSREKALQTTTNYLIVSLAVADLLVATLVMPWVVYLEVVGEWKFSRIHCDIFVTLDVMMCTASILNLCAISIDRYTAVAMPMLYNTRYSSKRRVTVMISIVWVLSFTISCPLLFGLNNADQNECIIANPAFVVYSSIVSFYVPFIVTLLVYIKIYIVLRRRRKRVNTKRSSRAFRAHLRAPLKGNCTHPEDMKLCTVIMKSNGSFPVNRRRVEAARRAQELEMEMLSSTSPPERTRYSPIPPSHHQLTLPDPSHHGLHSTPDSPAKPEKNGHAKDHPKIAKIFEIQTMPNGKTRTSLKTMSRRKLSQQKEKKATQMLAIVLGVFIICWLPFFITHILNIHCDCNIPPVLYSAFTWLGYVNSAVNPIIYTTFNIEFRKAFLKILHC
T6 sequence (P08588 whole entry, species assumed): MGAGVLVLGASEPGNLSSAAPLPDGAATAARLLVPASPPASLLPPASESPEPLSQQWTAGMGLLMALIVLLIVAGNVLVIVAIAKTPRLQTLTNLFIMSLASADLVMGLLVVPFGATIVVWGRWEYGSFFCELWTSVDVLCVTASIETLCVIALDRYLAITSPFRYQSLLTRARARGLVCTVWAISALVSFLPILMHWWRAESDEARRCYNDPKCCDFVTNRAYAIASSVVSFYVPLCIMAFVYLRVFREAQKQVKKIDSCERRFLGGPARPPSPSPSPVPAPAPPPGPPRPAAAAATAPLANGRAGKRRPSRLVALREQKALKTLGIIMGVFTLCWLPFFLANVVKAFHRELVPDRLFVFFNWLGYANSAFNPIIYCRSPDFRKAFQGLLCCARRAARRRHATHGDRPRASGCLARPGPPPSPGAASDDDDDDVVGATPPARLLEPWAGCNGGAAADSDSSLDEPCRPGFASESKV
T2 sequence (P46060 2-587 limits assumed): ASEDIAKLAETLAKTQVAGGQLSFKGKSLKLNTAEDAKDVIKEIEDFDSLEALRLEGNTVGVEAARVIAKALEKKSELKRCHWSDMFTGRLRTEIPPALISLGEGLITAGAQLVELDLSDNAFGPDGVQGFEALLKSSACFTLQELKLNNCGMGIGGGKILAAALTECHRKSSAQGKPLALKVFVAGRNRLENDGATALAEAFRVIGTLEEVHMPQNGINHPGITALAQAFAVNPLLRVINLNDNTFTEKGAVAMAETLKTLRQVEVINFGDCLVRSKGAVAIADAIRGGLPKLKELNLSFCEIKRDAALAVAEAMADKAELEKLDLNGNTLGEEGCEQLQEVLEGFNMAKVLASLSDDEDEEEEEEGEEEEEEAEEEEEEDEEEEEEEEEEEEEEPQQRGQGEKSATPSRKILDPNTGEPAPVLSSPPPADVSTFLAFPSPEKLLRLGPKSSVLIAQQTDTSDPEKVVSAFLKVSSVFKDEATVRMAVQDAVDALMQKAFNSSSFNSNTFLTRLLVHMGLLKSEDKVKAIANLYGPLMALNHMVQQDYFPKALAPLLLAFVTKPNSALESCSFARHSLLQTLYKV
T2 sequence (P63165 2-97 partner limits assumed): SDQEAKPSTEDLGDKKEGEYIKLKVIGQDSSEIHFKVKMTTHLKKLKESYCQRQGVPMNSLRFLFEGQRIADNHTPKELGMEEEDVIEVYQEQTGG
T1 sequence (P21728 whole entry): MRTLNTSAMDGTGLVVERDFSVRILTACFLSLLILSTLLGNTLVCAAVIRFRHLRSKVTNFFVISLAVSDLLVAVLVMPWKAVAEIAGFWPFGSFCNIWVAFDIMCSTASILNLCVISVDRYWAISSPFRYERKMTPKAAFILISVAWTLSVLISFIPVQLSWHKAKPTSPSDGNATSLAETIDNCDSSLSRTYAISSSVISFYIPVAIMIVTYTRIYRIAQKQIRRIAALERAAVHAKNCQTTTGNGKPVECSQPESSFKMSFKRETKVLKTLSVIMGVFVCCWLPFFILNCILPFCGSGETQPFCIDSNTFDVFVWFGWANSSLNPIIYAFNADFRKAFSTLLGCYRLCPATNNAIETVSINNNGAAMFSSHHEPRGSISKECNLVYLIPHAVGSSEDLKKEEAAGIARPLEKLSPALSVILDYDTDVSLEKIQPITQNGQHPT

## βarrestin2-SUMO1: rat βarrestin2 polypeptide fused to human SUMO1 (SEQ ID NO:1); used YFP- or Flag-tagged
[1]
  association with D1R after dopamine activation (confocal): strongly and stably
[2]
  association with endogenous RanGAP1 forms by co-immunoprecipitation: associated only with SUMO-RanGAP1
[3]
  binding with agonist activated V2Rs by co-immunoprecipitation: equivalent binding
[4]
  binding to activated β2AR relative to WT βarrestin2: 2-3 fold
[5]
  stability of association with activated D2R (confocal): associate stably
[6]
  localization of YFP fluorescence at the nuclear membrane: all cells
[7]
  association with β1AR after isoproterenol activation (confocal): strongly and stably
